Measurements as given in US20070031907A1, “Anaplastic lymphoma kinase assay, reagents and compositions thereof” (Istituto Nazionale Per Lo Studio E La Cura Dei Tumori, priority 2003, published 2007).

Substrate: CC[C@H](C)[C@H](NC(=O)[C@H](CC(=O)O)NC(=O)[C@H](CCCNC(=N)N)NC(=O)[C@H](C)N)C(=O)N[C@@H](Cc1ccc(O)cc1)C(=O)N[C@@H](CCCNC(=N)N)C(=O)N[C@@H](C)C(=O)N[C@@H](CO)C(=O)N[C@@H](Cc1ccccc1)C(=O)N[C@@H](Cc1ccccc1)C(=O)N[C@@H](CCCNC(=N)N)C(=O)N[C@@H](CCCCN)C(=O)NCC(=O)NCC(=O)N[C@@H](CS)C(=O)N[C@@H](C)C(=O)N[C@@H](CCSC)C(=O)N[C@@H](CC(C)C)C(=O)N1CCC[C@H]1C(=O)N[C@H](C(=O)N[C@@H](CCCCN)C(=O)O)C(C)C
Assay: Peptide phosphorylation (radioactive assay) with rALK
Assay type: biochemical, human
Details: other: kinetic constants for rALK with synthetic peptides as substrate; pH 7.5; 30.0 °C
Protocol: The reactions were terminated after 10 min of incubation at 30° C. by spotting 25 μl of the mixture onto P81 phosphocellulose papers, which were processed as described elsewhere (1). Kinetic constants were determined by GraphPad Prism software fitting the data directly to the Michaelis-Menten equation using nonlinear regression.

B1: rALK (ALK catalytic domain, Leu1073 to Ala1459) (Homo sapiens) (protein)
chain: LQSPEYKLSKLRTSTIMTDYNPNYCFAGKTSSISDLKEVPRKNITLIRGLGHGAFGEVYEGQVSGMPNDPSPLQVAVKTLPEVCSEQDELDFLMEALIISKFNHQNIVRCIGVSLQSLPRFILLELMAGGDLKSFLRETRPRPSQPSSLAMLDLLHVARDIACGCQYLEENHFIHRDIAARNCLLTCPGPGRVAKIGDFGMARDIYRASYYRKGGCAMLPVKWMPPEAFMEGIFTSKTDTWSFGVLLWEIFSLGYMPYPSKSNQEVLEFVTSGGRMDPPKNCPGPVYRIMTQCWQHQPEDRPNFAIILERIEYCTQDPDVINTALPIEYGPLVEEEEKVPVRPKDPEGVPPLLVSQQAKREEERSPAAPPPLPTTSSGKAAKKPTAA
notes: A portion of ALK, stretching from amino acids Leu^1073 to Ala^1459, has been cloned into the baculovirus transfer vector; made in house; host or cells: Sf9 (Spodoptera frugiperda) insect cells, baculovirus (pBlueBacHis2C, MaxBac 2.0)
  Km: 109.4 µM
  Vmax: 0.000186 µmol/min
